FireProtDB (doi:10.1021/bi00107a010)

B1: wild type, Q40059 (protein)
chain: MSSMEKKPEGVNIGAGDRQNQKTEWPELVGKSVEEAKKVILQDKPAAQIIVLPVGTIVTMEYRIDRVRLFVDRLDNIAQVPRVG
B2: Subtilisin-chymotrypsin inhibitor-2A wild type, P01053 (protein)
chain: MSSVEKKPEGVNTGAGDRHNLKTEWPELVGKSVEEAKKVILQDKPEAQIIVLPVGTIVTMEYRIDRVRLFVDKLDNIAQVPRVG

Conditions: Hordeum vulgare; pH 2.2; 25 °C; Thermal; DSC; glycine-HCl 10 mM; reversible: yes; whole UniProt chain shown

| Protein | heat capacity change of unfolding [kcal/mol/K] | unfolding free energy [kcal/mol] |
| --- | --- | --- |
| B1 | 0.79 | 1.94 |

Same assay, conditions: Hordeum vulgare; pH 2.5; 25 °C; Thermal; DSC; glycine-HCl 10 mM; reversible: yes; whole UniProt chain shown

| Protein | heat capacity change of unfolding [kcal/mol/K] | unfolding free energy [kcal/mol] |
| --- | --- | --- |
| B1 | 0.79 | 2.79 |

Same assay, conditions: Hordeum vulgare; pH 2.8; 25 °C; Thermal; DSC; glycine-HCl 10 mM; reversible: yes; whole UniProt chain shown

| Protein | heat capacity change of unfolding [kcal/mol/K] | unfolding free energy [kcal/mol] |
| --- | --- | --- |
| B1 | 0.79 | 3.73 |

Same assay, conditions: Hordeum vulgare; pH 3.2; 25 °C; Thermal; DSC; glycine-HCl 10 mM; reversible: yes; whole UniProt chain shown

| Protein | heat capacity change of unfolding [kcal/mol/K] | unfolding free energy [kcal/mol] |
| --- | --- | --- |
| B1 | 0.79 | 5.2 |

Same assay, conditions: Hordeum vulgare; pH 3.5; 25 °C; Thermal; DSC; glycine-HCl 10 mM; reversible: yes; whole UniProt chain shown

| Protein | heat capacity change of unfolding [kcal/mol/K] | unfolding free energy [kcal/mol] |
| --- | --- | --- |
| B1 | 0.79 | 6.48 |

Same assay, conditions: Hordeum vulgare; pH 2.2; Thermal; DSC; glycine-HCl 10 mM; reversible: yes; whole UniProt chain shown

| Protein | Tm [°C] | unfolding enthalpy (calorimetric) [kcal/mol] | unfolding enthalpy (van 't Hoff) [kcal/mol] |
| --- | --- | --- | --- |
| B2 | 41.6 | 43.5 | 42.3 |

Same assay, conditions: Hordeum vulgare; pH 2.5; Thermal; DSC; glycine-HCl 10 mM; reversible: yes; whole UniProt chain shown

| Protein | Tm [°C] | unfolding enthalpy (calorimetric) [kcal/mol] | unfolding enthalpy (van 't Hoff) [kcal/mol] |
| --- | --- | --- | --- |
| B2 | 47.2 | 49.2 | 45.5 |

Same assay, conditions: Hordeum vulgare; pH 2.8; Thermal; DSC; glycine-HCl 10 mM; reversible: yes; whole UniProt chain shown

| Protein | Tm [°C] | unfolding enthalpy (calorimetric) [kcal/mol] | unfolding enthalpy (van 't Hoff) [kcal/mol] |
| --- | --- | --- | --- |
| B2 | 55.2 | 52.8 | 51.1 |

Same assay, conditions: Hordeum vulgare; pH 3.2; Thermal; DSC; glycine-HCl 10 mM; reversible: yes; whole UniProt chain shown

| Protein | Tm [°C] | unfolding enthalpy (calorimetric) [kcal/mol] | unfolding enthalpy (van 't Hoff) [kcal/mol] |
| --- | --- | --- | --- |
| B2 | 64 | 61 | 60.8 |

Same assay, conditions: Hordeum vulgare; pH 3.5; Thermal; DSC; glycine-HCl 10 mM; reversible: yes; whole UniProt chain shown

| Protein | Tm [°C] | unfolding enthalpy (calorimetric) [kcal/mol] | unfolding enthalpy (van 't Hoff) [kcal/mol] |
| --- | --- | --- | --- |
| B2 | 71 | 67.5 | 68.8 |
